According to US20250163127A1:
Positions count from the first letter of the chain named. Numbers in names are those of the source.

B1: variant PD-L2 IgV H15Q Fc fusion (Fc fusion)
chain: LFTVTVPKELYIIEQGSNVTLECNFDTGSHVNLGAITASLQKVENDTSPHRERATLLEEQLPLGKASFHIPQVQVRDEGQYQCIIIYGVAWDYKYLTLKVKA
B2: variant PD-L2 IgV N24D Fc fusion (Fc fusion)
chain: B1 chain with Q15H, N24D
B3: variant PD-L2 IgV H15Q/T47A/Q72H/R76G/I86T Fc fusion (Fc fusion)
chain: B1 chain with T47A, Q72H, R76G, I86T
B4: variant PD-L2 IgV H15Q/S67L/R76G/I85F Fc fusion (Fc fusion)
chain: B1 chain with S67L, R76G, I85F
B5: variant PD-L2 IgV V89D Fc fusion (Fc fusion)
chain: B1 chain with Q15H, V89D
B6: variant PD-L2 IgV H15Q/K65R Fc fusion (Fc fusion)
chain: B1 chain with K65R
B7: variant PD-L2 IgV G28V/Q72H/R76G/I86T Fc fusion (Fc fusion)
chain: B1 chain with Q15H, G28V, Q72H, R76G, I86T
B8: variant PD-L2 IgV E44D Fc fusion (Fc fusion)
chain: B1 chain with Q15H, E44D
B9: variant PD-L2 IgV H15Q/Q82R/V89D Fc fusion (Fc fusion)
chain: B1 chain with Q82R, V89D
B10: variant PD-L2 IgV S67L/I85F Fc fusion (Fc fusion)
chain: B1 chain with Q15H, S67L, I85F
B11: variant CD80 E35D/L85Q/K93T/E95V/L97Q (Fc fusion)
chain: VIHVTKEVKEVATLSCGHNVSVEELAQTRIYWQKDKKMVLTMMSGDMNIWPEYKNRTIFDITNNLSIVILALRPSDEGTYECVVQKYEKDAFTRVHQAEVT
B12: variant CD80 Q33L/E35D/M47I/N48D/A71G (Fc fusion)
chain: B11 chain with Q33L, M47I, N48D, A71G, Q85L, T93K, V95E, Q97L
B13: variant CD80 V22A/E35D/M47I/Y87N (Fc fusion)
chain: B11 chain with V22A, M47I, Q85L, Y87N, T93K, V95E, Q97L
B14: variant CD80 E35D/D46E/M47V/N63D/L85Q (Fc fusion)
chain: B11 chain with D46E, M47V, N63D, T93K, V95E, Q97L
B15: variant CD80 R29H/E35D/M43V/M47I/I49V (Fc fusion)
chain: B11 chain with R29H, M43V, M47I, I49V, Q85L, T93K, V95E, Q97L
B16: variant CD80 Q27H/E35D/M47I/L85Q/D90G (Fc fusion)
chain: B11 chain with Q27H, M47I, D90G, T93K, V95E, Q97L
B17: variant CD80 E35D/D46E/M47V/V68M/D90G/K93E (Fc fusion)
chain: B11 chain with D46E, M47V, V68M, Q85L, D90G, T93E, V95E, Q97L
B18: variant CD80 E35D/M47I/T62S/L85Q (Fc fusion)
chain: B11 chain with M47I, T62S, T93K, V95E, Q97L
B19: variant CD80 E35D/M47V/N48K/V68M/K89N (Fc fusion)
chain: B11 chain with M47V, N48K, V68M, Q85L, K89N, T93K, V95E, Q97L
B20: variant CD80 E35D/M47I/L85Q/D90G (Fc fusion)
chain: B11 chain with M47I, D90G, T93K, V95E, Q97L
B21: variant CD80 E35D/T41S/M43V/M47I/L70M/A71G (Fc fusion)
chain: B11 chain with T41S, M43V, M47I, L70M, A71G, Q85L, T93K, V95E, Q97L
B22: variant CD80 E35D/M47L/A71G/L85M/F92Y (Fc fusion)
chain: B11 chain with M47L, A71G, Q85M, F92Y, T93K, V95E, Q97L
B23: variant CD80 K36G/K37Q/M38I/L40M (Fc fusion)
chain: VIHVTKEVKEVATLSCGHNVSVEELAQTRIYWQKEGQIVMTMMSGDMNIWPEYKNRTIFDITNNLSIVILALRPSDEGTYECVVLKYEKDAFKREHLAEVTLSVKADFPTPSISDFEIPTSNIRRIICSTSGGFPEPHLSWLENGEELNAINTTVSQDPETELYAVSSKLDFNMTTNHSFMCLIKYGHLRVNQTFNWNTTKQEHFPDN
B24: variant CD80 R29V/M43Q/E81R/L85I/K89R/D90L/A91E/F92N/K93Q/R94G (Fc fusion)
chain: VIHVTKEVKEVATLSCGHNVSVEELAQTVIYWQKEKKMVLTMQSGDMNIWPEYKNRTIFDITNNLSIVILALRPSDEGTYRCVVIKYERLENQGEHLAEVTLSVKADFPTPSISDFEIPTSNIRRIICSTSGGFPEPHLSWLENGEELNAINTTVSQDPETELYAVSSKLDFNMTTNHSFMCLIKYGHLRVNQTFNWNTTKQEHFPDN
B25: variant PD-L2 IgV I13V/E44D/Q82R/V89D Fc fusion (Fc fusion)
chain: B1 chain with I13V, Q15H, E44D, Q82R, V89D

What follows are binders tested against human PD-1 (human) (UniProt Q15116) (assay: not given).
Chain of human PD-1 (human) (Q15116 25-288): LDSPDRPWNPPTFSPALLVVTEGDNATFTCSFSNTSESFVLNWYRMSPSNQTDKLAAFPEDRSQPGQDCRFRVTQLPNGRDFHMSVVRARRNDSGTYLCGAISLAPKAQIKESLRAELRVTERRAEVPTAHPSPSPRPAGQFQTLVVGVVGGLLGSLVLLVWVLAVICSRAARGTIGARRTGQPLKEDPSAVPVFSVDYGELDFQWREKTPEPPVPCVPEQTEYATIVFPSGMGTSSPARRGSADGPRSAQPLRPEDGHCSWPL

Row | IFN gamma levels pg/mL (MLR) [pg/mL] | Binder
1 | 1820 | B1
2 | 1980 | B2
3 | 1600 | B3
4 | 1320 | B4
5 | 1170 | B5
6 | 1510 | B6
7 | 1780 | B7
8 | 1500 | B8
9 | 1080 | B9
10 | 1280 | B10

What follows are binders tested against CD28 (human) (UniProt P10747) (assay: flow cytometry, Jurkat cells (CD28)).

Row | Fold change to WT CD80 [fold] | MFI at 33.3 nM [MFI] | Binder
11 | 0.02 | 400 | B11
12 | 0.04 | 644 | B12
13 | – | 15300 | B13
14 | 0.07 | 1330 | B14
15 | 0.02 | 336 | B15
16 | 0.19 | 3510 | B16
17 | 1.5 | 27100 | B17
18 | 0.1 | 1760 | B18
19 | 0.65 | 11700 | B19
20 | 0.23 | 4100 | B20
21 | 0.15 | 2700 | B21
22 | 0.14 | 2460 | B22

Each binder was assayed against CD28 (human) (UniProt P10747) (assay: flow cytometry, cells expressing CD28).

Row | MFI [MFI] | parental ratio | Binder
23 | 1170 | 0.09 | B23
24 | 1030 | 0.08 | B24

These binders were tested against PD-L1 (human) (assay: flow cytometry, cells expressing PD-L1).
Chain of PD-L1 (human) (chain, as listed by the source): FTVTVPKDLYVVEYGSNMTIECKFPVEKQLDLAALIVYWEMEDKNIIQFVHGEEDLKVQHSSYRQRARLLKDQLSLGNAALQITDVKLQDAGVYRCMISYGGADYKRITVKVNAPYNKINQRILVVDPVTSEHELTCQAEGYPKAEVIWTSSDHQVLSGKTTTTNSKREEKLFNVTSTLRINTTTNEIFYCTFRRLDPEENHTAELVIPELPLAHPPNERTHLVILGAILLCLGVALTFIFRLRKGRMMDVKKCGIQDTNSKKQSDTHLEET

Row | MFI [MFI] | parental ratio | Binder
25 | 959 | 0.05 | B23
26 | 1580 | 0.09 | B24

Each binder was assayed against CTLA-4 (human) (assay: flow cytometry, cells expressing CTLA-4).
Chain of CTLA-4 (human) (chain, as listed by the source): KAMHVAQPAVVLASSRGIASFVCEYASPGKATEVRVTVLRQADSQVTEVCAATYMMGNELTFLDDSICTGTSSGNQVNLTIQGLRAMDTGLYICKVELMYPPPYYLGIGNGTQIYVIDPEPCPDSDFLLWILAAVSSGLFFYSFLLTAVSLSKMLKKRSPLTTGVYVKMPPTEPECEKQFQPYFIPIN

Row | MFI [MFI] | parental ratio | Binder
27 | 1400 | 0.03 | B23
28 | 996 | 0.02 | B24

What follows are binders tested against CTLA-4 (human) (assay: flow cytometry, CHO cells expressing CTLA4).

Row | Fold change to WT CD80 [fold] | MFI at 33.3 nM [MFI] | Binder
29 | 1.57 | 246000 | B11
30 | 0.74 | 117000 | B12
31 | – | 246000 | B13
32 | 1.74 | 274000 | B14
33 | 0.03 | 4690 | B15
34 | 1.64 | 258000 | B16
35 | 1.74 | 273000 | B17
36 | 1.91 | 301000 | B18
37 | 0.01 | 807 | B19
38 | 1.57 | 248000 | B20
39 | 1.59 | 249000 | B21
40 | 1.37 | 216000 | B22

What follows are binders tested against PD-L1 (human) (assay: flow cytometry, CHO cells expressing PD-L1).

Row | Fold change to WT CD80 [fold] | MFI at 33.3 nM [MFI] | Binder
41 | 1.67 | 19900 | B11
42 | 2.62 | 31200 | B12
43 | 5.88 | 69800 | B14
44 | 0.13 | 1590 | B15
45 | 2.58 | 30700 | B16
46 | 6.06 | 71900 | B17
47 | 3.79 | 45000 | B18
48 | 7.56 | 89800 | B19
49 | 3.01 | 35700 | B20
50 | 1.09 | 13000 | B21
51 | 3.93 | 46700 | B22

What follows are binders tested against PD-1-Fc (human) (UniProt Q15116) (assay: ForteBio Octet, PD-1 on anti-human capture sensor, 100 nM).
Chain of PD-1-Fc (human) (Q15116 25-167 limits assumed): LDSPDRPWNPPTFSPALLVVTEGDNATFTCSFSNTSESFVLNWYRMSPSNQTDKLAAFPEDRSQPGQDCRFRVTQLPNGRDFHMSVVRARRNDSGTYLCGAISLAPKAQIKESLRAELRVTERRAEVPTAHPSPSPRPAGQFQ

Row | Fortebio Response Units (Response Units) | Binder
52 | 0.007 | B1
53 | 1.28 | B25
54 | -0.039 | B2
55 | 0.512 | B3
56 | 0.025 | B4
57 | 0.005 | B5
58 | -0.001 | B6
59 | 0.003 | B7
60 | -0.006 | B8
61 | 1.2 | B9
62 | -0.005 | B10
